Assay results reported in patent US6844318B2, “Peptidase-cleavable, targeted antineoplastic drugs and their therapeutic use” (priority 2000, dated 2005).
Like-named read-outs stand apart in the source and are kept apart here. Residues, ends and D or L forms follow the SMILES beside them. *: point of attachment. Doxorubicin(3'-N) = COc1cccc2c1C(=O)c1c(O)c3c(c(O)c1C2=O)C[C@@](O)(C(=O)CO)C[C@@H]3O[C@H]1C[C@H](N*)[C@H](O)[C@H](C)O1

Assays:
[1] = Stability of conjugates in Hepes buffer (control of blood stability test); format: physicochemical; conditions: Hepes buffer pH 7.5, 10 μmolar, 37° C.
Protocol: (§1) The stability of doxorubicin conjugated peptides in human or nude mouse blood was evaluated by reverse phase HPLC with fluorescence detection after an 80% acetonitrile extraction. Individual peptides are prepared as 60 μmolar solutions in Hepes buffer pH 7.5 (50 mM), with CaCl2 (10 mM), Brij-35 (0.1%), followed by dilution to 10 μmolar in fresh heparinized whole blood or buffer. Solutions are incubated (37° C.) with slow continuous rocking. 50 μl reactions are terminated at designated times ranging from 1 minute to 24 hours by vortexing into 200 μl acetonitrile. After a brief centrifugation (1 min, 14,000×g) to pellet the precipitate, the acetonitrile is collected and evaporated to dry under a flow of nitrogen. Extracted samples are resuspended in 50 μl acetonitrile, followed by 100 μl distilled H2O, and transferred to HPLC autoinjector vials. Samples are chromatographed using a Nova-Pak C18 column (3.9×150 mm; WAT086344, Waters Corp. Milford, Ma), with a 12 minute linear gradient from 33.3 to 77.7% acetonitrile, 0.1% TFA, using a flow rate of 1 ml/min. A scanning fluorescence detector (# 474, Waters Corp) monitoring 480 nm excitation, 580 nm emission quantitates AUC of peaks of interest; mass is extrapolated from a standard curve generated under matching conditions.

[2] = Stability of conjugates in human blood; format: in vitro ADME; conditions: fresh heparinized whole human blood, 37° C., read-out: Conjugate Stability in Blood After 5.5 Hours (Percent of Control (In Buffer, T = 0)), Human Blood
Protocol: as §1

[3] = Stability of conjugates in nude mouse blood; format: in vitro ADME; conditions: fresh heparinized whole nude mouse blood, 37° C., read-out: Conjugate Stability in Blood After 5.5 Hours (Percent of Control (In Buffer, T = 0)), Nude Mouse Blood
Protocol: as §1

HT1080 cells [4] = experiment: cells; format: cell-based
Protocol: The conjugates were tested for cytotoxic effect against the HT1080 cell line, which expresses multiple MMPs. […] HT 1080 cells in culture have significant levels of MMPs 2, 9, and 14 and are consequently especially suitable for the evaluation of conjugates that are substrates for that enzyme.
The cell line was grown in tissue MEM with Earl's salts containing 10% fetal bovine serum (FBS). On day one, 500 cells were seeded into 96 well plates in 200 ul of cell culture medium that containing 10% FBS which had been stripped of bovine gelatinases by prior passage over a gelatin-sepharose column. On day two, peptidyl-Doxorubicin conjugates and Doxorubicin as a control were added to the plates. The cells were incubated for three days at 37° C., 5% CO2 in a tissue culture cell incubator. MTS reagent was added to each microplate well using the manufacturer's instructions […]. The plates were incubated for 2 hours at 37° C., 5% CO2. The plates were read on a Molecular Devices Spectropmax 250 plate reader at […]. The viability of the cells in each well was then calculated for each concentration of compound tested and compared to the control wells where no compound was added.

[5] = cited from earlier work
PSA protease = PSA protease (Homo sapiens, UniProt P07288); conditions: cited from earlier work
Chain of PSA protease (P07288 25-261): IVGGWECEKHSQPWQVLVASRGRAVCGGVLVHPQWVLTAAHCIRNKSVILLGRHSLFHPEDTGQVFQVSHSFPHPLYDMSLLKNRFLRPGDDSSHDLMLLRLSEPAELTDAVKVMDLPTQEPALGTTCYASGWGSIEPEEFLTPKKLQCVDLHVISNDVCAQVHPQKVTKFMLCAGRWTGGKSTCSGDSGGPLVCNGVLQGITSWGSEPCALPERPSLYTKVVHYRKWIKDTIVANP

prostate tumor cells = conditions: cited from earlier work
[6] = mice; cited from earlier work
[7] = Phase I trial, in the tumor tissue; cited from earlier work
[8] = test system: human ovarian tumor xenograft; conditions: equitoxic doses; cited from earlier work
HT1080 cells [9] = experiment: Analysis of processing by HT1080 cultures (HPLC); format: cell-based
Protocol: Actively growing HT1080 cells are seeded in a 12 well plate at 2×10^5 cells per well in DMEM with 10% serum. On the next day, media is removed and cells are washed twice with PBS. 1.5 of DMEM containing 0.1% BSA, […] Ac-PLG-HofK(Me2)L-Dox (SEQ ID NO: 127) and 40 nM PMA is then added to each well. A broad spectrum MMP inhibitor is added to some samples so that the amount of processing that is due to MMPs can be determined. At the indicated times, 0.1 ml aliquots are removed, added to 0.4 ml acetonitrile, vortexed, and centrifuged for 2 minutes. 0.4 of cleared supernatant is removed and dried using a nitrogen stream. The dried pellet is suspended in 0.12 ml of HPLC Buffer A and analyzed as in Example 1000.
At the times used in this experiment, the only detectable metabolite is L-Dox. HofK(Me2)L-Dox and K(Me2)L-Dox are not detected since they are rapidly converted to L-Dox. At later times, Dox is formed from L-Dox.

[10] = HT1080 cells, three days, MTS, read-out: EC50

| Compound | Conjugate Stability After 5.5 Hours (Percent of Control (In Buffer, T = 0)), Buffer [1] [%] | remaining at 5.5 h, 10 μmolar [2] [%] | remaining at 5.5 h, 10 μmolar [3] [%] | other results |
| --- | --- | --- | --- | --- |
| COc1cccc2c1C(=O)c1c(O)c3c(c(O)c1C2=O)C[C@@](O)(C(=O)CO)C[C@@H]3O[C@H]1C[C@H](NC(=O)[C@H](CC(C)C)NC(=O)CNC(=O)[C@H](CC(C)C)NC(=O)[C@@H]2CCCN2C(=O)CNC(C)=O)[C@H](O)[C@H](C)O1 [Ac-GPLG-L-Dox] (Ac-GPLGL-{Doxorubicin(3'-N)}) | 106 | 10.2 | 5.9 |  |
| COc1cccc2c1C(=O)c1c(O)c3c(c(O)c1C2=O)C[C@@](O)(C(=O)CO)C[C@@H]3O[C@H]1C[C@H](NC(=O)[C@H](CC(C)C)NC(=O)[C@H](C)NC(=O)[C@H](CC(C)C)NC(=O)CNC(=O)[C@H](CC(C)C)NC(=O)[C@@H]2CCCN2C(=O)CNC(C)=O)[C@H](O)[C@H](C)O1 [Ac-GPLG-LAL-Dox, acetyl-G-P-L-G-L-A-L-Dox] (Ac-GPLGLAL-{Doxorubicin(3'-N)}) | 92.2 | 15.4 | 5.8 |  |
| COc1cccc2c1C(=O)c1c(O)c3c(c(O)c1C2=O)C[C@@](O)(C(=O)CO)C[C@@H]3O[C@H]1C[C@H](NC(=O)[C@H](CC(C)C)NC(=O)[C@H](CC(C)C)NC(=O)CNC(=O)[C@H](CC(C)C)NC(=O)[C@@H]2CCCN2C(=O)CNC(C)=O)[C@H](O)[C@H](C)O1 [Ac-GPLG-LL-Dox, acetyl-G-P-L-G-L-L-Dox] (Ac-GPLGLL-{Doxorubicin(3'-N)}) | 105 | 42.6 | 25.8 |  |
| COc1cccc2c1C(=O)c1c(O)c3c(c(O)c1C2=O)C[C@@](O)(C(=O)CO)C[C@@H]3O[C@H]1C[C@H](NC(=O)[C@H](CC(C)C)NC(=O)CNC(=O)[C@H](CC(C)C)NC(=O)[C@@H]2CCCN2C(C)=O)[C@H](O)[C@H](C)O1 [Ac-PLG-L-Dox, Ac-PLGL-Dox] (Ac-PLGL-{Doxorubicin(3'-N)}) | 99.2 | 74.7 | 68.2 |  |
| COc1cccc2c1C(=O)c1c(O)c3c(c(O)c1C2=O)C[C@@](O)(C(=O)CO)C[C@@H]3O[C@H]1C[C@H](NC(=O)[C@H](CC(C)C)NC(=O)[C@H](C)NC(=O)[C@H](CC(C)C)NC(=O)CNC(=O)[C@H](CC(C)C)NC(=O)[C@@H]2CCCN2C(C)=O)[C@H](O)[C@H](C)O1 [Ac-PLG-LAL-Dox, acetyl-P-L-G-L-A-L-Dox] (Ac-PLGLAL-{Doxorubicin(3'-N)}) | 96.8 | 49.1 | 9 | EC50 (HT1080 cells [4]; [10]): < 10 µM |
| COc1cccc2c1C(=O)c1c(O)c3c(c(O)c1C2=O)C[C@@](O)(C(=O)CO)C[C@@H]3O[C@H]1C[C@H](NC(=O)[C@H](CC(C)C)NC(=O)[C@H](CC(C)C)NC(=O)CNC(=O)[C@H](CC(C)C)NC(=O)[C@@H]2CCCN2C(C)=O)[C@H](O)[C@H](C)O1 [Ac-PLG-LL-Dox, Acetyl-P-L-G-L-L-Dox] (Ac-PLGLL-{Doxorubicin(3'-N)}) | 106 | 87.2 | 63.8 | EC50 (HT1080 cells [4]; [10]): < 10 µM |
| COc1cccc2c1C(=O)c1c(O)c3c(c(O)c1C2=O)C[C@@](O)(C(=O)CO)C[C@@H]3O[C@H]1C[C@H](NC(=O)[C@H](CC(C)C)NC(=O)[C@H](C)NC(=O)[C@H](CC(C)C)NC(=O)[C@H](CC(C)C)NC(=O)CNC(=O)[C@H](CC(C)C)NC(=O)[C@@H]2CCCN2C(C)=O)[C@H](O)[C@H](C)O1 [Ac-PLG-LLAL-Dox, acetyl -P-L-G-L-L-A-L-Dox] (Ac-PLGLLAL-{Doxorubicin(3'-N)}) | 102.0 | 55.6 | 19.2 | EC50 (HT1080 cells [4]): < 10 µM |
| COc1cccc2c1C(=O)c1c(O)c3c(c(O)c1C2=O)C[C@@](O)(C(=O)CO)C[C@@H]3O[C@H]1C[C@H](NC(=O)[C@H](CC(C)C)NC(=O)[C@H](C)NC(=O)[C@H](Cc2ccc(O)cc2)NC(=O)[C@H](CC(C)C)NC(=O)CNC(=O)[C@H](CC(C)C)NC(=O)[C@@H]2CCCN2C(C)=O)[C@H](O)[C@H](C)O1 [Ac-PLG-LYAL-Dox, acetyl -P-L-G-L-Y-A-L-Dox] (Ac-PLGLYAL-{Doxorubicin(3'-N)}) | 91.3 | 37.5 | 20 | EC50 (HT1080 cells [4]; [10]): < 10 µM |
| COc1cccc2c1C(=O)c1c(O)c3c(c(O)c1C2=O)C[C@@](O)(C(=O)CO)C[C@@H]3O[C@H]1C[C@H](NC(=O)[C@H](CC(C)C)NC(=O)[C@H](Cc2ccc(O)cc2)NC(=O)[C@H](CC(C)C)NC(=O)CNC(=O)[C@H](CC(C)C)NC(=O)[C@@H]2CCCN2C(C)=O)[C@H](O)[C@H](C)O1 [Ac-PLG-LYL-Dox, acetyl-P-L-G-L-Y-L-Dox] (Ac-PLGLYL-{Doxorubicin(3'-N)}) | 112 | 90.1 |  |  |
| COc1cccc2c1C(=O)c1c(O)c3c(c(O)c1C2=O)C[C@@](O)(C(=O)CO)C[C@@H]3O[C@H]1C[C@H](N)[C@H](O)[C@H](C)O1 [Doxorubicin, doxorubicin, reference compound] |  |  |  | EC50 (HT1080 cells [4]; Homo sapiens, HT-1080, 72 h, HT1080 cells, three days, MTS, read-out: EC50): 0.008 to 0.009 µM; cumulative dose in excess of which there is a substantial risk of cardiotoxicity and myelosuppression [5]: 500 to 550 mg doxorubicin/m^2 |
| Ac-HSSKLQ-Leu-Dox: peptide-doxorubicin pro-drug targeted to the prostate-specific antigen (XSSKLQL; N-acetyl, Leu-doxorubicin conjugate) |  |  |  | substrate for the PSA protease (PSA protease): is a substrate for the PSA protease; activity against prostate tumor cells which express the protease activity (prostate tumor cells): is active against prostate tumor cells |
| Leu-Dox |  |  |  | overall conversion of Leu-Dox to Dox [6]: approximately 20%; conversion of Leu-Dox to Dox [7]: approximately 25%; anti-tumor efficacy compared with free doxorubicin [8]: more effective anti-tumor agent than free doxorubicin |
| acetyl-P-L-G-Hof-(N,N-dimethyl-K)-L-Dox (XLGXXL; non-natural residues) [Ac-PLG-HofK(Me2)L-Dox] |  |  |  | Fraction of L-Dox (HT1080 cells [9]; 0 hours, Minus MMP inhibitor): 0; Fraction of L-Dox (HT1080 cells [9]; 0 hours, Plus MMP inhibitor): 0; Fraction of L-Dox (HT1080 cells [9]; 3 hours, Minus MMP inhibitor): 0.10; Fraction of L-Dox (HT1080 cells [9]; 3 hours, Plus MMP inhibitor): 0.004; Fraction of L-Dox (HT1080 cells [9]; 5.5 hours, Minus MMP inhibitor): 0.20; Fraction of L-Dox (HT1080 cells [9]; 5.5 hours, Plus MMP inhibitor): 0.01; Fraction of L-Dox (HT1080 cells [9]; 8 hours, Minus MMP inhibitor): 0.46; Fraction of L-Dox (HT1080 cells [9]; 8 hours, Plus MMP inhibitor): 0.02 |
